Experimental data reported in US8114968.

B1: 539B-M0041-G01 (Fab, V domains shown)
VH: EVQLLESGGGLVQPGGSLRLSCAASGFTFSYYPMAWVRQAPGKGLEWVSYISSSGGLTTYADSVKGRFTISRDNSKNTLYLQMNSLRAEDTAVYYCARSPTYYDFWSGYWAGIFDYWGQGTLVTVSS
VL: DIQMTQSPSSLSASVGDRVTITCRASQSISYFLNWYQQKPGKAPKLLIYAASTLQGGVPSRFRGSGSGTDFTLTISSLQPEDFATYYCQHSYSTPPITFGPGTKVDIK
B2: 539B-M0034-C04 (Fab, V domains shown)
VH: EVQLLESGGGLVQPGGSLRLSCAASGFTFSEYPMYWVRQAPGKGLEWVSVIYPSGGWTDYADSVKGRFTISRDNSKNTLYLQMNSLRAEDTAVYYCARMAVTGGSRFDYWGQGTLVTVSS
VL: DIQMTQSPSSLSASVGDRVSITCRASQNINSYLNWYQQKVGKAPKLLIFGAYTLHSGAPSRFSGSGSGTDFTLTISSLQPEDVATYYCQQTYTSYSFAQGTKLEIK
B3: 539B-M0041-B05 (Fab, V domains shown)
VH: B2 VH
VL: B2 VL
B4: 539B-M0016-D01 (Fab, V domains shown)
VH: EVQLLESGGGLVQPGGSLRLSCAASGFTFSEYNMPWVRQAPGKGLEWVSYIYSSGGSTEYADSVKGRFTISRDNSKNTLYLQMNSLRAEDMAVYYCAKDLWEDSSTWGYGMDVWGQGTTVTVSS
VL: QSELTQPPSVSVSPGQTATITCSGDVSVHKSFCWYQQRPGQSPVLVIYQIDKRPSGVPERFSGSISGTTATLTISGTQATDEADYYCQGWDSTTYYVFGTGTKVTVL
B5: 539B-M0039-F01 (Fab, V domains shown)
VH: EVQLLESGGGLVQPGGSLRLSCAASGFTFSRYWMDWVRQAPGKGLEWVSGIYPSGGYTLYADSVKGRFTISRDNSKNTLYLQMNSLRAEDTAVYYCARHGDYMDVWGKGTTVTVSS
VL: NIQMTQSPSSVSASVGDRVTITCRASQDINYWLAWYQQKPGKAPKLLIYAASSLQSGVPSRFSGSGSGTDFTLTISSLQPEDFATYYCQRANSFPYTFGQGTKLEIK
B6: 539B-M0009-H08 (Fab, V domains shown)
VH: EVQLLESGGGLVQPGGSLRLSCAASGFTFSMYWMFWVRQAPGKGLEWVSSISSSGGHTFYADSVKGRFTISRDNSKNTLYLQMNSLRAEDTAVYYCARGSYSGYDPFDYWGRGTLVTVSS
VL: QYELTQPPALSVAPGETATITCGGDKIGRKSVNWYQQKAGQAPVLVIFYDNDRPSGITGRFSGSNSGNSATLTISRVEAGDEADFYCQVWGPNDFPLFGGGTKLTVL
B7: 539B-M0042-B06 (Fab, V domains shown)
VH: EVQLLESGGGLVQPGGSLRLSCAASGFTFSFYHMEWVRQAPGKGLEWVSSISPSGGHTDYADSVKGRFTISRDNSKNTLYLQMNSLRAEDTAVYYCASLLSGTWGQGTLVTVSS
VL: DIQMTQSPDTLSLSPGERATLSCRASQTISSTFLAWYQQKPGQAPRLLIYGASTRAAGIPDRFIGSGSGTDFTLTISSLEPEDSAVYYCQQYDRSPTFGGGTKVEIK

Biological target: human MMP-12 (human) (UniProt P39900)
Sequence (P39900 106-470 limits assumed): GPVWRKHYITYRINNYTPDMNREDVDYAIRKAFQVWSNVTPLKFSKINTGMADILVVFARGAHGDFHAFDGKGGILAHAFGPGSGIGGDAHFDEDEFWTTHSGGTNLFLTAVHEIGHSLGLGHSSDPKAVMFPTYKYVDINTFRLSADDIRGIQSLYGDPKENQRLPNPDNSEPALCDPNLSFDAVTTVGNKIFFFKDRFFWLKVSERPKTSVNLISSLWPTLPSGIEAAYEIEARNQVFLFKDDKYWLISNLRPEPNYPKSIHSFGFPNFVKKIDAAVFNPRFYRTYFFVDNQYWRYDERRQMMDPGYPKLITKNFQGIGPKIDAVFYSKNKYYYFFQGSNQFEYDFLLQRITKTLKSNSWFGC
Assay: cell-based or functional assay

% of activity left with 100 nM in assay 04 Oct. 2006 [%]	% of activity left with 100 nM in assay 29 Aug. 2006 [%]	Binder
109	84.8	B1
38.6	39.1	B2
35.1	–	B3
48.1	–	B4
69.4	57.8	B5
103	–	B6
53.6	–	B7
